Data set [1] has as its target T1, ABCG2 (Homo sapiens, UniProt Q9UNQ0).
T1 construct: expressed in transfected cells
T1 sequence (Q9UNQ0 1-655): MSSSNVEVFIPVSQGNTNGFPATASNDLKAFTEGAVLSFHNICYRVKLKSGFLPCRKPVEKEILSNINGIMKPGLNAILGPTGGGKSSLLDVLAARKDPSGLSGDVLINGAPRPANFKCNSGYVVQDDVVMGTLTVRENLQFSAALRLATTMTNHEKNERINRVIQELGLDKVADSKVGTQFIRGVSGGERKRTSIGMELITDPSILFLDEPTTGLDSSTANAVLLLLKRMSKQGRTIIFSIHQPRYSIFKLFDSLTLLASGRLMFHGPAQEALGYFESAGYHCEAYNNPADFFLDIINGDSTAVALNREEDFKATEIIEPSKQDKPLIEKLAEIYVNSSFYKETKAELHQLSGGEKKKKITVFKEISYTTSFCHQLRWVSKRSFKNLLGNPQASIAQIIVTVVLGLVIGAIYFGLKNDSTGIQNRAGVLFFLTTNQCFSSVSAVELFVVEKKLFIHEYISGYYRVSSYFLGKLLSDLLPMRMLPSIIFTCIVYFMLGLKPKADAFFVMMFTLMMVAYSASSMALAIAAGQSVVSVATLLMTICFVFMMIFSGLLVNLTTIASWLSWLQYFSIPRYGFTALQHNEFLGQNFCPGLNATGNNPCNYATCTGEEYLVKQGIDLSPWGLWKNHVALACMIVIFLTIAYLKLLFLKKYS
Kind of data set: Flow cytometry binding to 293T cells overexpressing human ABCG2 (293T_ABCG2_OX). Conditions: for binding to 293T cells overexpressing human ABCG2: in words, FIGS. 7-11, 21; for Binding by FACS: 293T_ABCG2_OX cells. Also on record: key to Binding by FACS: binding=“+”; non-significant binding=“−”. On the procedure: (§1) Cell Binding Assays. Antibody binding to cells was evaluated by flow cytometry. 293T cells stably transfected to express human or cynomolgus ABCG2 (293T_ABCG2_OX) were washed once in flow cytometry buffer (PBS+2% FBS+0.02% sodium azide), resuspended at 2×10^6 cells/mL in flow cytometry buffer, and dispensed into 96-well microtiter plates at 0.1 mL/well. Recombinant antibodies were added to cells at 5 ug/mL for initial binding confirmation, or serially diluted from 100 ug/mL in flow cytometry buffer. After incubating cells on ice for 30 min, cells were washed twice with flow cytometry buffer. Bound antibody was detected with PE-labeled F(ab′)2 fragment goat anti-human IgG (Jackson ImmunoResearch) and evaluated on an Attune NxT flow cytometer. EC50 is calculated to be the concentration of antibody that gives half maximal response.
In general terms: Flow cytometry measures light scatter and fluorescence of single cells or particles in a stream.

In data set [2] the test system is cynomolgus ABCG2. Description: Flow cytometry binding to 293T cells overexpressing cynomolgus ABCG2. Also on record: key to Cynomolgus ABCG2 binding: binding=“+”; non-significant binding=“−”. Conditions: for binding to 293T cells overexpressing cynomolgus ABCG2: in words, FIGS. 7-11, 21. On the procedure:
as §1

Data set [3] deals with T1, ABCG2. It is filed as cell-based. On the procedure: 293T_ABCG2_OX cells were washed several times and aliquoted into 96-well plates as 50 μl aliquots/well at a cell density of 2×10e6 cells per ml in phenol red-free DMEM. Cells were mixed with 50 μl antibodies or the small molecule inhibitors of ABCG2:-fumitremorgin C (FTC), or its tetracyclic analogue K0143, with a final concentration of 1 μM. Cells were then incubated in the presence of 2.5 μM Mitoxantrone 1 h at 37° C. The cells were subsequently washed twice and finally resuspended in […] PBS. Mitoxantrone fluorescence was measured using excitation at 635 nm and emission at 647 nm. Protocols was measuring efflux blockade are found in Szabo E, et al., PLoS One. 2018 Jan. 17; 13(1):e0190629; Deeken J F, et al., Mol Pharmacol. 2009 November; 76(5):946-56).

cynomolgus ABCG2, sequence (as listed by the source): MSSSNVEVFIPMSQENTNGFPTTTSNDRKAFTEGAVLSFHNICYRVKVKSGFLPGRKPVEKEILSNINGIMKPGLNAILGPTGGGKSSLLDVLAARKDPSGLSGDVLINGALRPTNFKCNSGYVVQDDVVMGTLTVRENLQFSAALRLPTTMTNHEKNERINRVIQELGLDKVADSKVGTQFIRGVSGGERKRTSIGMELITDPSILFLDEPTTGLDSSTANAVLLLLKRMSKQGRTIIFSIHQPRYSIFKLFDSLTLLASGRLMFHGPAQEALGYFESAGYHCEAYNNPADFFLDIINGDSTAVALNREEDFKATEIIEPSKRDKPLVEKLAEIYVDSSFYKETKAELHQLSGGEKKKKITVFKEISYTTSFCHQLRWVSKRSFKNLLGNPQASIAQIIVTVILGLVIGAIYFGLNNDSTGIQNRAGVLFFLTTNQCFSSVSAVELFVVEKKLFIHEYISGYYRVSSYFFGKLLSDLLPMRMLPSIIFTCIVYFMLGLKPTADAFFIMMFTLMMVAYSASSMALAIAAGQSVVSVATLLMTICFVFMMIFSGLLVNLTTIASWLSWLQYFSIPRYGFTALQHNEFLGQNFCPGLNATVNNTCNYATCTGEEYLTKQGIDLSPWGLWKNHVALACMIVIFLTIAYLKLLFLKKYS

B1: G2.748: anti-ABCG2 monoclonal antibody (antibody, V domains shown)
VH: QVSLKESGPGMLQPSKTLSLTCSFSGFSLSTSGMVVNWIRQPSGKSLEWLAAIDWDGDKYYNPSLKHRLTVSKDTSNTQVVLKITSVDTADTATYYCARSIAPYRGWFGYWGQGTLVTVSS
VL: EIVLIQSPSSLPASLGERVTIICRASQDIGNNLNWYQQKPDGTIKPLIYFTSNFQSGVPSSFSGSRSGTDFSLTISSLEAEDFAMYYCQQDASLPWTFGGGTKLEIK
In the case of B1, in data set [1], the “binding to 293T cells overexpressing human ABCG2” value is “good binding affinity”. The “binding to 293T cells overexpressing cynomolgus ABCG2” value in data set [2] was “good binding affinity”.

B2: G2.247 mouse: anti-ABCG2 antibody raised in mouse (antibody, V domains shown)
VH: EVRLQQSGAELVKPGASVKLSCKTSGFTFSNSYISWLKQKPRQSLEWIAWIYAGTGGTNYNQKFTGKAQLTVDTSSSTAYMQLSSLTSEDSAIYYCATYGNFLYAMDNWGQGTSVTVSS
VL: DIVMTQSPASLSASVGETVTITCRASGNIHNYLAWYQQKQGKSPQLLVYNTKTLADGVPSRFSGSGSGTQYSLKINSLQPEDFGSYYCQHFWSTPWTFGGGTKLEIK
B2: the “Binding by FACS” value in data set [1] was “+”. In addition, the “Block Efflux” value in data set [3] is reported as “−”. Also, the “Cynomolgus ABCG2 binding” value in data set [2] was “−”.

B3: G2.252 mouse: anti-ABCG2 antibody raised in mouse (antibody, V domains shown)
VH: EVQLQQSGAELVKPGASVKLSCKTSGFTFSNSYISWLKQKPRQSLEWIAWIYAGTGGTNYNQKFTGKAQLTVDTSSSTAYMQLSSLTSEDSAIYYCATYGNFLYAMDYWGQGTTLTVSS
VL: EIVLTQSPASLSASVGETVTITCRASGNIHNYLAWYQQKQGKSPQLLVYNAKTLADGVPSRFSGSGSGTQYSLKINSLQPEDFGSYYCQHFWSTPWTFGGGTKLEIK
As to B3, the “Binding by FACS” value in data set [1] was “+”. Besides, in data set [3], the “Block Efflux” value is given as “−”. Further, the “Cynomolgus ABCG2 binding” value in data set [2] is listed as “−”.

B4: G2.257 mouse: anti-ABCG2 antibody raised in mouse (antibody, V domains shown)
VH: EVQLQQSGPELVKPGASLKISCKTFGYSFTGYYMHWVKQSPEKSLEWIGKIVPSTGGTTYNQKFKAKATLTVDKSSFTAYMQLKSLTTEDSAVYYCAREKVYGYDVYYFDYWGQGTTLTVSS
VL: DIQMTQTPSSLSASLGDRVTITCSTSQGVRSYLNWYQQKPDGSVKLLIYYTSSLHSGVPSRFSGSGSGTDYSLTISNLEPEDIATYYCQQYSKLPYTFGGGTKLELK
Take B4: the “Binding by FACS” value in data set [1] is recorded as “+”. In addition, the “Block Efflux” value in data set [3] is “−”. Further, the “Cynomolgus ABCG2 binding” value in data set [2] was “+”.

B5: G2.346 rat: anti-ABCG2 antibody raised in rat (antibody, V domains shown)
VH: SVQWKESGPGLVQPSQTLSLTCTVSGFSLTSNGVSWVRQPPGKGLEWIAAISSGGSTYYNSGLKSRLSISRDTSKSQVFLKMNSLQTEDTAIYFCTRAGYYGYNPIWFTYWGQGTLVTVSS
VL: DVVMTQTPPTLSATIGQSVSISCRSSQSLLHGSGNTYLNWLLQRPGQPPQILIYLVSRLESRVPKRFSGSGSGTDFTLKISGVEADDLGVYYCVQSTHAPFTFGSGTKLELK
With B5, the “Binding by FACS” value in data set [1] was “+”. Besides, the “Block Efflux” value in data set [3] is reported as “−”. In addition, the “Cynomolgus ABCG2 binding” value in data set [2] is given as “+”.

B6: G2.348 rat: anti-ABCG2 antibody raised in rat (antibody, V domains shown)
VH: EVQLVESGPGLMQPSQTLSLTCTVSGFSLTSNGVSWVRQPPGKGLEWIATISSGGNTNYNSALKSRLSISRDTSKSQVFLKMNSLQTEDTAIYFCTRVGYYGYNPIWFAYWGQGTLVTVSS
VL: DVVMTQTPPTLSATIGHSVSISCRSSQSLFHSSGNTYLSWFLQRPGQPPQLLIYLVSRLESRVPNRFSGSGSGTDFTLKISVLEAEDLGVYYCVQTTHAPFTFGSGTKLEIK
With B6, in data set [1], the “Binding by FACS” value is “+”. Moreover, the “Block Efflux” value in data set [3] was “−”. Besides, the “Cynomolgus ABCG2 binding” value in data set [2] is recorded as “+”.

B7: G2.302 Humanized: humanized version of anti-ABCG2 antibody G2.302 (antibody, V domains shown)
VH: EIQLVQSGAEVKKPGASVKVSCKASGYTFTDYYINWVRQAPGQRLEWIGWIYPGNVNVKYNEKFKGRATLTVDTSASTGYMELSSLRSEDTAVYFCARSIGLRYFDNWGQGTLVTVSS
VL: EKVLTQSPATLSLSPGERATLSCRASSSVHYMYWHQQKPGQSPRLWIYYTSNLAPGVPARFSGSGSGNDYTLTISSLEPEDFAVYYCQQFTTSTWTFGGGTKLEIK
As to B7, the “Binding by FACS” value in data set [1] is listed as “+”. The “Block Efflux” value in data set [3] is on record as “−”. Further, the “Cynomolgus ABCG2 binding” value in data set [2] was “+”.

B8: G2.640: Anti-G2 antibody raised in rats; VH SEQ ID NO:415, VL SEQ ID NO:416 (antibody, listed as Rattus norvegicus, V domains shown)
VH: EVKLEESGPGLVQPSQTLSLTCTVSGFSLTSDGVSWVRQPPGKGLEWIAAISSGGSTYYNSALKSRLSISRDTSKSQVFLKMNSLQTEDTAIYFCTRDTYYGYNQIPFVYWGQGTLVTVSS
VL: DIVIIQSPPSLSASLGDKVTISCQASQNIHRYIAWYQQKPGKAPRLLIRYTSTLESGTPSRFSGSGSGRDYSFSISNVESEDIASYYCLQYVNLWTFGGGTKLELK
Regarding B8, the “binding to 293T cells overexpressing human ABCG2” value in data set [1] is listed as “did not show significant binding”. Also, the “binding to 293T cells overexpressing cynomolgus ABCG2” value in data set [2] was “did not show significant binding”.

B9: G2.760: anti-ABCG2 monoclonal antibody (antibody, V domains shown)
VH: EVQLVESGGGLVQPGRSMKLSCAASGFTFSKSDMAWVRQAPTKGLKWVASIRYDGGNTYYRDSVRGRFTISRDNAKSTLYLQMDSLRSEDTATYYCSTAKAAISTPSYYVLDAWGQGASVTVSS
VL: DIGMTQSPTSMSKSVGDRVTMNCKASQNVGSNVDWFQQKTGQSPKLLIYKSSNRYTGVPARFTGSGSGTDFTFTISNMQAEDLAVYYCMQSNSYPPTFGGGTKLELK
Consider B9, for which, in data set [1], the “binding to 293T cells overexpressing human ABCG2” value is on record as “good binding affinity”. The “binding to 293T cells overexpressing cynomolgus ABCG2” value in data set [2] is given as “good binding affinity”.

B10: G2.394 rat: anti-ABCG2 antibody raised in rat (antibody, V domains shown)
VH: EVQLKESGPGLVQPSQTLSLTCTVSGFSLTDYTITWVRQPPGKGLEWIAATSVGGATHYNSPLKSRLSISGDTSKSQVFLKMNSLRTEDTAMYFCVRSGYYSTYMNWGRGTMVTVSS
VL: DVVMTQTPPTFSATIGQSVSISCRSSQSLLHSSGNTFLSWLLQRPGQPPQLLIYLVSRLEFGVPNRFSGSGSGTDFTLKISGVEAEDLGVYYCVQSTHVMNTFGAGTKLEIK
With B10, the “Binding by FACS” value in data set [1] is listed as “+”. In addition, in data set [3], the “Block Efflux” value is reported as “−”. For the same molecule, the “Cynomolgus ABCG2 binding” value in data set [2] is given as “+”.

B11: G2.636.hu47: humanized variant of the anti-ABCG2 antibody G2.636 (antibody, V domains shown)
VH: EVQLVESGGGLVQPGGSLRLSCAASGFTFSRFYMAWVRQAPGKGLEWVAHISHGGDTTYYRDSVKGRFTISRDNSKNTLYLQMNSLRAEDTAVYYCTTSAAPWNYVMDGWGQGATVTVSS
VL: DIQLTQSPSSLSASVGDRVTLTCKGSQNINNFLAWYQQKPGKAPKLLIYKTNSLHTGIPSRFSGSGSGTDYTLTISSLQPEDFATYYCYQYNNGYTFGQGTKLEIK
On to B11, for which the “efflux inhibition activities and binding to human and cynomolgus ABCG2 of humanized G2.636 antibodies” value in data set [3] is “particularly good expression and activity”.

B12: G2.757: anti-ABCG2 monoclonal antibody (antibody, V domains shown)
VH: QVTLKESGPGILRPSHTLSLTCSFSGFSLTTYGICVSWIRQPSGKGLEWLANICWEDSKAYNPSLKNRLTISKDTSNNQVFLRIPSVDTADSAIYYCARVFNNYPFPYWGQGTLVTVSS
VL: TQSPPSLSASLGDKVTITCQASQNINKYVAWYQQKPGKAPRLLIRYTSTLESGTPSRFSGSGSWRDYSFSISNVESEDIADYYCLQYVNLWTFGGGTKLELK
In the case of B12, the “binding to 293T cells overexpressing human ABCG2” value in data set [1] is “good binding affinity”. Also, the “binding to 293T cells overexpressing cynomolgus ABCG2” value in data set [2] is reported as “good binding affinity”.

The record behind these values is patent US20230212305A1, “ANTI-ABCG2 ANTIBODIES AND USES THEREOF” (Kenjockety Biotechnology, Inc., priority 2020, published 2023).
